# ± gives the uncertainty stated by the source.
# Assay: amyloid nucleation score (Sup35N fusion, yeast selection) (log enrichment); library NNK2; higher = more nucleation; inactive = no reads after selection
# Outline: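 Output and input plasmid inserts were sequenced by Illumina after psi-negative yeast carrying Sup35N fused to peptides of 20 random codons had been induced 24 hours with 100 μM copper sulfate and grown 7 days at 30°C on medium lacking adenine and uracil. The nucleation score is the DiMSum log enrichment of output over input reads, centred on the mode score of non-aggregating sequences. Sequences with under 100 input reads were excluded.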
row,Substance,amyloid nucleation score
1,RSSKTNWWTGEISVPYGYWM,0.368 ± 0.47
2,RSSLEKIMIGNFNYVRVKLH,2.28 ± 0.18
3,RSSRHLDAYIEAS,0.877 ± 0.28
4,RSSSCSNVMMVE,0.935 ± 0.34
5,RSSSRASALTRYLSELGKKS,0.694 ± 0.39
6,RSTNTRIIKLTKCAGPNRDE,1.14 ± 0.17
7,RSVACVDDMHE,4.916 ± 0.049
8,RSVVVGGHNLRISTQAILIP,0.34 ± 0.64
9,RTDRLCARHLGLFDDTVPET,0.664 ± 0.21
10,RTGHTINFVEQPMHTVPMWH,5.08 ± 0.068
11,RTGRDFLSSIFFTSK,-1.8 ± 0.41
12,RTIQMVTSQSLPCFC,6.196 ± 0.042
13,RTSGAVDCTHRFFSEWFKGV,inactive
14,RTVQQIAPVGGHERVKC,-0.175 ± 0.26
15,RTVRTAAMLTCGW,0.855 ± 0.48
16,RTWQCDDWSQYLLVVF,-0.1 ± 1
17,RTYEMKAMRVASWQSS,1.9 ± 0.098
18,RTYEMVIKFSGSLVRAFRVL,-0.068 ± 0.79
19,RVADVCTQVMRGL,1.9 ± 0.33
20,RVASVSYVSVWYEMCQCFRG,9.503 ± 0.082
21,RVCMINSYLLVTRCVGDN,8.387 ± 0.028
22,RVDFFRFSVQSESWSVLH,0.334 ± 0.35
23,RVFLSGSWSTHGNFCRLRNV,-0.449 ± 0.41
24,RVGCLWFRLYPLYSGFMRSR,-1.08 ± 1
25,RVGSFG,0.596 ± 0.4

row,Substance,amyloid nucleation score
1,RVISGSMVETIDEDIVEGVN,-0.332 ± 0.3
2,RVLRSETYDSFSL,-0.163 ± 0.32
3,RVMEYEILLIFCI,0.135 ± 0.65
4,RVMRVISRPEELAWVA,0.602 ± 0.29
5,RVNCSFTDFVDVVIWKGRGN,5.07 ± 0.089
6,RVNMDAGVLSVHLEAVGFHM,4.08 ± 0.057
7,RVNNLLEKEGTSYGEFAYGL,0.182 ± 0.45
8,RVPFWFT,-1.2 ± 0.49
9,RVPGPVHSSCYTAARFFCPM,1.83 ± 0.14
10,RVPSSHF,1 ± 0.47
11,RVSDRHV,1.42 ± 0.099
12,RVSHEHVYLSNFVTPWLCYY,5.913 ± 0.049
13,RWARQRAWTRLLNGE,1.18 ± 0.48
14,RWCSLDSQSDYSSM,-0.681 ± 1
15,RWMVHAA,-0.251 ± 0.76
16,RWTLWFEGRLERLVAIIS,-0.133 ± 1
17,RWYSYYTQGDFRRFFLGSN,inactive
18,RYAINCVEAYGLC,-0.387 ± 0.63
19,RYASDFWILNICAGDIVILL,8.495 ± 0.054
20,RYGPIWGYCNKLFWARCTQL,0.2 ± 0.49
21,RYISPSQSAQVSGHLRNVQL,0.689 ± 0.62
22,RYKKAHSSALRCK,0.988 ± 0.74
23,RYLIGNSGNYVNGCVEQALR,-0.365 ± 0.76
24,RYLNWRVCSNRLPGSEGLWA,0.323 ± 0.32
25,RYNHRFKVVLSHNIDLWQGS,0.689 ± 0.47

row,Substance,amyloid nucleation score
1,RYPIVRTDMYIIVKFI,0.509 ± 0.81
2,RYRRFVIGVQWQRLSRG,-0.19 ± 1.1
3,RYRTMSTRHPAYGVGGLLLM,0.544 ± 0.36
4,RYSNMLN,3.83 ± 0.096
5,RYVLSMFQLLLTYVQL,0.561 ± 0.23
6,RYVTKGLCLL,1.16 ± 0.47
7,RYYHLCAI,0.289 ± 0.8
8,SAADQPKWRSTTSCVPSDVS,3.74 ± 0.068
9,SACNARRVPFG,0.788 ± 0.51
10,SAHFTIRKELFLKDTRRVV,-0.47 ± 1
11,SARHDSRVYNWGLFMKYDVN,4.12 ± 0.084
12,SARSIERSDYPMINARHHAC,0.031 ± 0.34
13,SATEWIISVGGRAWRF,2.65 ± 0.12
14,SAVFLLRLCTQIKCMTVR,inactive
15,SCAHCCHRKVLR,0.53 ± 0.3
16,SCALF,-0.679 ± 1.1
17,SCCMGICGKDLCDGIELKFP,-0.936 ± 1
18,SCFGNVYGGVVLQAFGGVVS,0.082 ± 1.1
19,SCLLWAF,-1.54 ± 1.1
20,SCLMIIPFVFMFEHYTFEEG,7.71 ± 0.082
21,SCRSIRYEWRHDTVGRRSTR,3.2 ± 0.064
22,SCSRWWFWRNATLEVLSKVR,0.697 ± 0.81
23,SCTALVKEKMRG,0.48 ± 0.32
24,SCYLVVFPKIC,inactive
25,SDAFGRRHSSLAM,1.56 ± 0.14

row,Substance,amyloid nucleation score
1,SDCFMGANDVMNKLEYGLDA,0.091 ± 0.22
2,SDGARLWR,0.097 ± 1.1
3,SDIYRSSRLQ,0.179 ± 0.33
4,SDMTNS,-1.55 ± 0.64
5,SDNAEGVSANFFVRPILSVF,-1.47 ± 1.1
6,SDQQYGCDWVWLGRGPIEVA,0.252 ± 0.28
7,SDSGQVVNSLGSKEGIRFFD,-1.17 ± 0.38
8,SDTFS,0.68 ± 0.56
9,SDVKYIGMCSCQHSFIMMGM,0.372 ± 0.36
10,SDWII,-0.063 ± 0.56
11,SDYHLFTYTLGINSTLDGRV,-1.3 ± 0.38
12,SEAYEGFSYSVLQYEP,-0.092 ± 0.36
13,SEEIGLT,0.426 ± 0.26
14,SEFLRKVSFFLFYLFSSGHL,-0.73 ± 0.61
15,SEFVGSYWGFDLMLGLD,-0.807 ± 1
16,SELFQLIGILHSNLFGIYMF,-0.427 ± 0.74
17,SEWSRDRKRVKVSHFA,0.465 ± 0.17
18,SEYVCSCYFSGLLNKLRLVE,0.356 ± 0.43
19,SEYVLLT,inactive
20,SFACVSLIFISY,5.72 ± 0.063
21,SFFCMKQMLNFL,0.533 ± 0.35
22,SFFLFWRFCIGAW,-0.977 ± 0.63
23,SFFQESHKRIDRVYKYGMGS,-0.96 ± 0.28
24,SFGYPPVCLLFSHLHRRFLL,0.237 ± 1
25,SFKHLT,-0.853 ± 1.1

row,Substance,amyloid nucleation score
1,SFLWCPGG,0.221 ± 0.33
2,SFMGLAMHRSLSSCSVRSWY,0.199 ± 0.53
3,SFPMLVISVS,4.7 ± 0.068
4,SFSILLEDTSS,-0.162 ± 0.76
5,SFSVYRFVGTLSGYADLGLG,0.302 ± 0.37
6,SFTGL,-0.684 ± 0.44
7,SFWNQKYCA,-0.117 ± 0.4
8,SGAQA,-0.966 ± 0.78
9,SGCCR,-0.925 ± 1
10,SGCGCGLGMPTCRRSVRG,0.631 ± 0.19
11,SGDGVLVSFSKDSGFQSFGS,0.673 ± 0.2
12,SGHTRVGDFSF,0.158 ± 0.3
13,SGIHEIFESVFFNTYFRRMT,-0.549 ± 1
14,SGLEEYLSHLMLQVRFQESR,0.432 ± 0.57
15,SGLLSFLTHSLFEFLSNKQW,-0.557 ± 1.1
16,SGLVVMRLLFLRGY,-0.558 ± 0.54
17,SGLVWVTN,-0.018 ± 1.1
18,SGMWSNRDEALSCWRG,0.29 ± 0.54
19,SGNIAMFVPSVRWSVRDYCC,1.06 ± 0.14
20,SGPRLTYSTLSKICALVQAE,0.457 ± 0.34
21,SGSGGSSLLFTIGEQGRRRI,-0.876 ± 0.45
22,SGSGSTAILGKTSGHVCLAI,0.713 ± 0.58
23,SGSRYAIVSYG,-0.139 ± 0.53
24,SGTMSLLKMLLEYKLLT,-0.678 ± 0.76
25,SGWVLGYSCRKLLLGGLSRG,1.48 ± 0.31

row,Substance,amyloid nucleation score
1,SGYWNGVIRTKSNNDTVYVK,-0.395 ± 0.22
2,SHFVCMWFYYISTWKCS,-0.766 ± 0.48
3,SHGEKSVDDEGSGIGERWQC,1.27 ± 0.33
4,SHRPWVWGQNISMKYRSVLK,3.7 ± 0.057
5,SIANLPFISLL,-1.62 ± 0.54
6,SICASWNRINGIVTKLGWSE,-0.739 ± 0.32
7,SICRPIMSESWIASPCVLVG,-0.012 ± 0.24
8,SIGLLTGKWLPSLMVLYLLV,1.29 ± 0.44
9,SIGPLLHMCSFVFLEVRIIF,1.83 ± 0.15
10,SIHDVVYLGPVVVAKDSSVF,inactive
11,SIIWQRLLGIFNFLGAPESM,inactive
12,SILALTE,-0.072 ± 1.1
13,SILFNVARGCAGVPNLKSYS,-0.43 ± 0.56
14,SILNDESFILLDILMVHFEY,-0.547 ± 0.35
15,SIQLRVK,inactive
16,SIRRTLVGQRAHEGKFWYGV,-0.504 ± 0.63
17,SISALLFIPAHRTIMAG,-1.69 ± 1.1
18,SISIACCA,6.991 ± 0.031
19,SITMFQCQRVCASLQYVTGT,6.968 ± 0.063
20,SIVMFVCDLRNQPTAIFRDR,8.256 ± 0.074
21,SKDLSISQWSLGWLCHVWHT,-0.153 ± 0.79
22,SKGRYAYRRMGAYLCSD,1.48 ± 0.43
23,SKGSTGLRIVLFHFTCVVID,1.99 ± 0.17
24,SKGYYTLKVTYWTFR,-0.745 ± 0.44
25,SKLRYNFR,-0.573 ± 0.32

row,Substance,amyloid nucleation score
1,SKPCGKVIYWKDRLSKLSEK,inactive
2,SKRFRLTIDGIGVYRW,0.649 ± 0.22
3,SKTLAGIWSDGVHAEFDIKG,-0.573 ± 0.79
4,SKVNVVVDNMG,-0.125 ± 0.39
5,SKYMRFGDTFLFARMHGKGD,4.49 ± 0.048
6,SLDCPGFGRAYV,1.62 ± 0.16
7,SLDETSPLVWEWEICSDLYN,0.68 ± 0.56
8,SLDQFSLSPKAVQRVACVAQ,0.251 ± 0.54
9,SLFCVYYNDSSLLSYSVWQI,5.75 ± 0.06
10,SLFITASYYNFRG,3.62 ± 0.049
11,SLGIVNSHIFAMWTFSSMGA,3.74 ± 0.065
12,SLGNQIQVCISLPSMPVTPW,0.512 ± 0.66
13,SLGPRRSCCTIWKVWAYAGS,0.241 ± 0.42
14,SLGSSWCNSDLLAL,-0.311 ± 1.1
15,SLGTFVRHTEWSSKNEAFPV,inactive
16,SLIGTRLIGAAGISSVKRLY,0.208 ± 0.46
17,SLILDNVDEGQSFSMGVCLG,0.462 ± 0.66
18,SLKANYGWLISNAWDMFHLG,-0.467 ± 0.74
19,SLKMRNRWGIDVVE,0.386 ± 0.23
20,SLKTVAFHSEMFFCSTLVDM,0.153 ± 0.8
21,SLLFVNNWFSVCRKASCIGN,7.787 ± 0.052
22,SLLNQLIKRNKSNAYVVHGI,-0.275 ± 0.4
23,SLLYRD,-0.817 ± 0.48
24,SLNSGFRDPIYWSVLRRSPS,6.81 ± 0.086

# Reference: the supplement of paper PMC12042874
